We go through one substance from article PMC12635182.

This test concerns the target aSyn-VC (alpha-synuclein fused in front of the C-terminal fragment of Venus) (UniProt P37840).

With “VN-Sph1 K527A (from UniProt Q9Y6H5 1-919) (natural protein)”, the cells with fewer VN-Sph1 + aSyn-VC inclusions than with WT Sph1 (HEK 293, counted by microscopy) was 40%.
